In patent publication US9358023B2, “Systems and methods for opening of a tissue barrier” (priority 2009, dated 2016):

How the values were obtained:
blood-brain barrier [1] = experiment: Volume and duration of FUS-induced BBB opening with size-isolated microbubbles, by Gd-DTPA-BMA contrast-enhanced T1 MRI; assay type: in vivo, mice (C57BL/6)
Description: Acoustic waves used were generated by a single-element, spherical-segment FUS transducer (center frequency: 1.5 MHz, focal depth: 60 mm, radius: 30 mm; Imasonic, France), which was driven by a function generator (Agilent, Palo Alto, Calif.) through a 50-dB power amplifier (E&I, Rochester, N.Y.) (for example as shown in FIG. 5). A central-void (radius: 11.2 mm) of the therapeutic transducer held a pulse-echo ultrasound transducer (center frequency: 10 MHz, focal length: 60 mm), which was used for imaging, with their two foci aligned. The imaging transducer was driven by a pulser-receiver (Olympus, Waltham, Mass.) connected to a digitizer (Gage Applied Technologies, Lachine, QC, Canada). A cone filled with degassed and distilled water was mounted onto the transducer system and was fitted with a polyurethane membrane (Trojan; Church & Dwight Co., Princeton, N.J.). The transducers were attached to a computer-controlled 3D positioning system (Velmex, Lachine, QC, Canada). The targeting procedure has been described herein. […]
BBB opening in the murine hippocampus was confirmed using a 9.4 T system (Broker Medical; Boston, Mass.). […] Vital signals were monitored and respiration rate was approximately 55 breaths/min. […] In the five cases where signal enhancement was detected on day 5, MRI sessions were repeated on day 7. […]

blood-brain barrier [2] = conditions: mouse
[3] = system: phosphorylated MAPK (T202-T204); experiment: Immunohistochemistry DAB stain intensity after FUS and BDNF: phosphorylated MAPK; assay type: in vivo, mice (C57Bl6)
Method: (§1) Immunohistochemistry was performed only in the case of BDNF. Five primary antibodies were used: two against phosphorylated TrkB receptor (p-Y816 rabbit polyclonal [ab75173] and p-Y515, rabbit polyclonal [ab51187]) purchased from Abeam Inc. (Cambridge, Mass.), and three against phosphorylated Akt (p-S473 rabbit monoclonal [#4060]), phosphorylated MAPK (p-T202/T204 rabbit monoclonal [#4370]), and phosphorylated CREB (p-S133 rabbit monoclonal [#9198]), all purchased from Cell Signaling Technology (Danvers, Mass.). Slides containing thin frozen sections (5-10 μm) were dried and placed in a citrate buffer (pH 6.0) for antigen retrieval using a microwave. Slides were allowed to cool for 20 minutes prior to a PBS rinse (3×5 min) and then incubated in 0.3% hydrogen peroxide in PBS (five min) to block endogenous peroxidase activity. Slides were washed again in PBS (3×5 min) and blocked in 10% normal goat serum with 0.1% BSA for 20 minutes. After blocking solution was removed, the primary antibodies were diluted in DAKO antibody diluent solution (1:50-1:300) and incubated for 60 minutes at room temperature. Slides were washed in PBS for five min and incubated with biotinylated secondary antibody (goat anti-rabbit 1:200; Vector Laboratories, Burlingame, Calif.) for 30 minutes at room temperature. […]

[4] = system: phosphorylated CREB (S133); experiment: Immunohistochemistry DAB stain intensity after FUS and BDNF: phosphorylated CREB; assay type: in vivo, mice (C57Bl6)
Method: as §1

blood-brain barrier [5] = experiment: Delivery of Alexa Fluor 594-tagged BDNF across the FUS-opened BBB, fluorescence of brain sections; conditions: mouse sacrificed 20 min after sonication
[6] = system: ACHE (acetylcholine esterase); conditions: dose-dependent induction of ACHE, rat basal forebrain primary septal culture; according to the supplier; cited from earlier work
[7] = system: phosphorylated TrkB receptor (pTrkB Y816 and Y515); experiment: Immunohistochemistry DAB stain intensity after FUS and BDNF: phosphorylated TrkB; assay type: in vivo, mice (C57Bl6)
Method: as §1

[8] = in vivo; cited from earlier work
[9] = system: phosphorylated Akt (S473); experiment: Immunohistochemistry DAB stain intensity after FUS and BDNF: phosphorylated Akt; assay type: in vivo, mice (C57Bl6)
Method: as §1

[10] = BDNF-administered mice, sacrificed 20-30 min, N=3

CNC(=O)CN(CCN(CCN(CC(=O)[O-])CC(=O)NC)CC(=O)[O-])CC(=O)[O-].[Gd+3] [Gd-DTPA-BMA]
time to peak signal enhancement in the sonicated hippocampus after IP injection (blood-brain barrier [1]): approximately 1 h

B1: Neurturin: neurotrophic factor neurturin (NTN) (protein, UniProt Q99748 96-197, looked up)
Neurturin: ARLGARPCGLRELEVRVSELGLGYASDETVLFRYCAGACEAAARVYDLGLRRLRQRRRLRRERVRAQPCCRPTAYEDEVSFLDAHSRYHTVHELSARECACV
permeation through the FUS-opened BBB into the parenchyma (blood-brain barrier [2]): permeating through the opened barrier and into the parenchyma

B2: BDNF: BDNF Human Recombinant produced in Escherichia Coli, homodimer, non-glycosylated, 2×119 amino acids, 27 kDa (protein, UniProt P23560 19-247, looked up)
Neurotrophic factor BDNF …: APMKEANIRGQGGLAYPGVRTHGTLESVNGPKAGSRGLTSLADTFEHVIEELLDEDQKVRPNEENNKDADLYTSRVMLSSQVPLEPPLLFLLEEYKNYLDAANMSMRVRRHSDPARRGELSVCDSISEWVTAADKKTAVDMSGGTVTVLEKVPVSKGQLKQYFYETKCNPMGYTKEGCRGIDKRHWNSQCRTTQSYVRALTMDSKKRIGWRFIRIDTSCVCTLTIKRGR
modifications: E. coli-expressed, non-glycosylated homodimer
notes: BDNF Human Recombinant produced in Escherichia Coli, homodimer, non-glycosylated, 2×119 amino acids, 27 kDa
mean percent change in DAB stain intensity between left and right hippocampal regions, pMAPK [3, 10]: 60.58% | difference in DAB intensity between sonicated and control hippocampus, pMAPK ([3]; mouse sacrificed 3 min): No difference in DAB intensity | difference in DAB intensity between left sonicated hippocampus and control, pCREB ([4]; 3-min case): not | mean percent change in DAB stain intensity between left and right hippocampal regions, pCREB [4, 10]: 56.91% | fluorescent intensity, sonicated hippocampus (left) vs un-sonicated hippocampus (right) (blood-brain barrier [5]): much higher fluorescent intensity | ED50 [6]: 0.05 µg/mL | mean percent change in DAB stain intensity between left and right hippocampal regions, pTrkB (Y515 and Y816 combined) [7, 10]: 25.22% | difference in DAB intensity between left sonicated hippocampus and control, pTrkB ([7]; mouse expiring 3 min after BDNF injection): observed | half-life of circulating BDNF [8]: less than 10 min | difference in DAB intensity between left sonicated hippocampus and control, pAkt ([9]; 3-min case): not | mean percent change in DAB stain intensity, pAkt, BDNF-administered mice vs control mice ([9]; sacrificed 20-30 min): similar

B3: GDNF: glia-derived neurotrophic factor (protein, UniProt P39905 78-211, looked up)
Glial cell line-derived …: SPDKQMAVLPRRERNRQAAAANPENSRGKGRRGQRGKNRGCVLTAIHLNVTDLGLGYETKEELIFRYCSGSCDAAETTYDKILKNLSRNRRLVSDKVGQACCRPIAFDDDLSFLDDNLVYHILRKHSAKRCGCI
permeation through the FUS-opened BBB into the parenchyma (blood-brain barrier [2]): does not | fluorescence post-mortem in brain, kidneys, liver, bladder or testes (blood-brain barrier [2]; in vivo): no fluorescence was found | time within which the protein may be broken down in circulation (blood-brain barrier [2]; in vivo): ≤ 45 s
